T1: G9a and GLP (Homo sapiens, UniProt Q96KQ7+Q9H9B1)
T1 sequence (Q96KQ7 2-1210 limits assumed): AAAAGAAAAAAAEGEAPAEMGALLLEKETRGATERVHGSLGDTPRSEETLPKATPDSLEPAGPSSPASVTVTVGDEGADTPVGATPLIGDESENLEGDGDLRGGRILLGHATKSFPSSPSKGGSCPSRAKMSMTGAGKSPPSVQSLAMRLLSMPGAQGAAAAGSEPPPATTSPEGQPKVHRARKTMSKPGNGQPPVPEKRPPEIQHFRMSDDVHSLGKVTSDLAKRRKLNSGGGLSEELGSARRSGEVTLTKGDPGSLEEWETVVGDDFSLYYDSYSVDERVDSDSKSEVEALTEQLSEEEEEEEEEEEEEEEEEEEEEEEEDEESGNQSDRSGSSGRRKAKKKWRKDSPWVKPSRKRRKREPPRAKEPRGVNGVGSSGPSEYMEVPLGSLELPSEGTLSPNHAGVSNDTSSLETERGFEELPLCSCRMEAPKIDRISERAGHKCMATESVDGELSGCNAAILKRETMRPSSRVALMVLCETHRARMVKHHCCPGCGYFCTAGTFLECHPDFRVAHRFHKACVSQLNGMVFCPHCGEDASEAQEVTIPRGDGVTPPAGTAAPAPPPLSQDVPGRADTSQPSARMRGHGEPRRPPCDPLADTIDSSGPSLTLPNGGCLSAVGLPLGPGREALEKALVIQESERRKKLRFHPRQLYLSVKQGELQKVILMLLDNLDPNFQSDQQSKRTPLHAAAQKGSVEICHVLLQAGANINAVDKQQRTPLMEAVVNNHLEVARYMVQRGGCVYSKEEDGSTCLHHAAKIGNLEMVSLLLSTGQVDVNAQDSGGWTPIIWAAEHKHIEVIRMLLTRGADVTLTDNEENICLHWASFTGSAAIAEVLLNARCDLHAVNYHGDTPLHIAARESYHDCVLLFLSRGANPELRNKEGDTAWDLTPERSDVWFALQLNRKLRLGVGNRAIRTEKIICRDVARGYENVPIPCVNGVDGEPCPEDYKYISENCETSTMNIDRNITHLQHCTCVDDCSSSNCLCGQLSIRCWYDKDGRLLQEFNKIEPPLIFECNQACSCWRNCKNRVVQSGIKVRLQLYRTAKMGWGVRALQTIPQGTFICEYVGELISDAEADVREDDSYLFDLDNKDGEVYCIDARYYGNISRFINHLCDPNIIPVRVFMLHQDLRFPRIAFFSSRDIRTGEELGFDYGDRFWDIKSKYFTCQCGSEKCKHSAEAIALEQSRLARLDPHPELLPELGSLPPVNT
T1 sequence (Q9H9B1 2-1298 limits assumed): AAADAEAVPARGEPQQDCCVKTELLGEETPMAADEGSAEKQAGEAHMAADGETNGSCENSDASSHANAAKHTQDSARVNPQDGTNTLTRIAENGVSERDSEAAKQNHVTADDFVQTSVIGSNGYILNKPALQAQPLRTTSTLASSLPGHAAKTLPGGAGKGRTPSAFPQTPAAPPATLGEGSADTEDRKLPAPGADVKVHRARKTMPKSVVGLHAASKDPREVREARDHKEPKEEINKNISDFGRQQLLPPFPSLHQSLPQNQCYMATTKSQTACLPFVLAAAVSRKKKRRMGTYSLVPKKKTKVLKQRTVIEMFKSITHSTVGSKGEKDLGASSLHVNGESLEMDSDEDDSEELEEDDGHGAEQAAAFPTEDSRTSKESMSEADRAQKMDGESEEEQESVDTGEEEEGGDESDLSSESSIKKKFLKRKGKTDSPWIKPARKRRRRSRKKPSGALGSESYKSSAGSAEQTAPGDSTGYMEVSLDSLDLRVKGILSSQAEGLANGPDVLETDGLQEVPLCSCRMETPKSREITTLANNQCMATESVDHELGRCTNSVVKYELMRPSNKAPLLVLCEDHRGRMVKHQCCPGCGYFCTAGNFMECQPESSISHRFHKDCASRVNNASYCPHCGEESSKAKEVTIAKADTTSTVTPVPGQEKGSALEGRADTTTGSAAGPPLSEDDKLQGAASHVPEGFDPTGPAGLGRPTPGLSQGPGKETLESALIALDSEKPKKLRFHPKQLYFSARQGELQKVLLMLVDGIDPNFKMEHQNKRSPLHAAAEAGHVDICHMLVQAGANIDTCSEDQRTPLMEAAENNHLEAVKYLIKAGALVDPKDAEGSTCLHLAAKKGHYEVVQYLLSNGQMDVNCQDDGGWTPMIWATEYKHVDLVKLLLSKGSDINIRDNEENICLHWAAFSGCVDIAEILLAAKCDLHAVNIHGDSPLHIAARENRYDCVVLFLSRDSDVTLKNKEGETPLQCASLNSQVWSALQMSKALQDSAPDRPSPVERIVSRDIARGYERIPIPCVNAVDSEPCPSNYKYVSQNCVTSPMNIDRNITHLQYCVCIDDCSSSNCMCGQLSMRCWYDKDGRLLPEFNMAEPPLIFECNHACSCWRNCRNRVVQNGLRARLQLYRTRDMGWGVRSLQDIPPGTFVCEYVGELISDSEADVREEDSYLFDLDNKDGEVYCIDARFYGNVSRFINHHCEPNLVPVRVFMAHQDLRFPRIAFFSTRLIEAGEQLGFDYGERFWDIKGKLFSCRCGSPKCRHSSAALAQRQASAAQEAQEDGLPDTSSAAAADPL


Assays:
3×MBT domain of L3MBTL1 [1] = test: Triple SILAC pull-down, 3xMBT/3xMBTD355N ratio (cytoplasmic, nuclear and chromatin fractions of 293T cells); format: binding, human; conditions: SILAC ratio, pull-down 3xMBT vs 3xMBTD355N;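 further: proteins quantified with MaxQuant, requiring at least two unique peptides and quantification in both label directions, normalized to the mean of proteins from a digested loading control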
G9a and GLP = molecular target: T1, G9a and GLP; test: Triple SILAC pull-down after UNC0638 treatment of 293T cells, DMSO/UNC0638 ratio of protein captured by 3×MBT; format: cell-based; design: cells were treated for 24 hours with UNC0638 at 2.5 μM or DMSO vehicle control; endogenous in cells; host or cells: HEK 293T;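 further: mass spectrometry (Q-Exactive) SILAC quantitation, DMSO/UNC0638 ratio computed after subtracting 3×MBTD355N mutant pull-down background, only proteins with at least twofold 3×MBT over mutant signal considered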
3×MBT domain of L3MBTL1 [2] = test: SILAC proteomic pull-down 3×MBT vs 3×MBTD355N from 293T nuclear extract, LC-MS/MS; format: binding, human; conditions: SILAC ratio, 293T nuclear extract pull-down; * = protein identified in only one labeling experiment
Protocol: Protein pull-downs were performed as described above using 600 μg of nuclear extract prepared with isotopic labels as indicated. After eluting with glutathione, 3×MBT domain was removed by dialysis into high salt and rebinding to GSH-sepharose. Bound proteins were separated by SDS-PAGE and analyzed by in-gel tryptic digest followed by LC-MS/MS. Peptides were identified using MaxQuant version 1.2.2.5 (Cox and Mann (2008) Nat. Biotechnol. 26, 1367-1372) and candidate methylated peptides were verified by manual inspection.
For stable isotope labeling by amino acids in cell culture (SILAC) experiments HEK 293T cells were grown for at least six doublings in DMEM for SILAC supplemented with 10% dialyzed fetal bovine serum (FBS), 230 mg/L L-proline and either 100 mg/L each of L-lysine and L-arginine (“light” medium), D4-L-lysine and ^13C6-L-arginine (“medium” media), or ^13C6^15N2-L-lysine and ^13C6^15N4-L-arginine (Thermo Scientific). Heavy methyl labeling used DMEM without L-Methionine or L-Cysteine supplemented with D3^13C-L-Methionine (Sigma), L-Cysteine (Sigma) and 10% dialyzed FBS.
600 μg of nuclear extract was incubated overnight rotating at 4° C. with 20 μl packed 3×MBT or 3×MBTD355N beads in a total volume of 250 μL with binding buffer. Supernatant was removed and saved for use as a loading control. Beads were washed 4×5 minutes with 0.5 mL binding buffer. Protein was eluted by incubating in 20 μL elution buffer (10 mg/mL glutathione in 50 mM Tris pH 8.0) rotating at 4° C. for four hours. Elutions from 3×MBT and 3×MBTD355N were combined and dialyzed overnight at 4° C. against 10,000× volume of dissociation buffer (50 mM Tris pH 7.5, 750 mM NaCl) in a 0.1 mL Slide-A-Lyzer MINI Dialysis Device with 3.5K molecular weight cutoff (Thermo Scientific). 80 μL of GSH-Sepharose was prepared by washing briefly three times with 0.5 mL binding buffer. Dialyzed proteins were added to the GSH-Sepharose and incubated 4 hours rotating at 4° C. to deplete the GST-fusion domains. Supernatant was transferred to a fresh 1.5 mL tube. Proteins were separated by SDS-PAGE on a 10% polyacrylamide gel and stained using SilverQuest Silver Staining Kit (Life Technologies). Lanes were excised, residual 3×MBT band was removed, and gel was diced into 0.5 mm cubes. Gel pieces were destained and processed by in-gel digestion (Carlson et al. (2011) Science Signaling 4) with sequencing grade trypsin (Promega) and the peptide sample was dried completely in a vacuum centrifuge. To prepare a loading control, 2 μL each of light and heavy nuclear extract were combined, 6 μL of 8M urea was added, proteins were denatured by adding 2 μL of 100 mM dithiothreitol in digest buffer (50 mM ammonium bicarbonate) and heating to 60° C. for 1 hour, cysteine was alkylated by adding 2.2 μL 100 mg/mL iodoacetamide in digest buffer and incubating 1 hour at room temperature in darkness, and proteins were digested by adding 80 μL trypsin (Promega) at 12.5 ng/μL in digest buffer and incubating overnight at room temperature in darkness. Digestion was stopped by adding 10 μL of 10% formic acid.
Each experiment consisted of two sets of pull-downs: “forward” labeling with 3×MBT incubated with light nuclear extract and 3×MBTD355N with medium extract, and a second “reverse” labeling experiment with the label conditions swapped. Proteins were included in the results if they were quantified in both labeling directions. To determine reproducibility the entire experiment including the label swap was duplicated using independent protein preparations and a mass spectrometer at another institution.
For 3×MBT pull-down experiment #1 the gel lane was processed and peptides were loaded off-line onto a first dimension trap column (Waters Xbridge, C18, 10 μm particle size, 100 Å pore size, 5 cm packing length, 150 μm column i.d.). […]

Row | Relative to UNC0638 UNC Heavy (G9a and GLP; SILAC ratio DMSO/UNC0638 of protein pulled down with 3xMBT, UNC0638 in heavy SILAC media) [log base 2] | Relative to UNC0638 UNC Light (G9a and GLP; SILAC ratio DMSO/UNC0638 of protein pulled down with 3xMBT, UNC0638 in light SILAC media) [log base 2] | Relative to UNC0638 Average (G9a and GLP; average of UNC Light and UNC Heavy experiments) [log base 2] | Molecule | 3xMBT/D355N UNC Heavy (3×MBT domain of L3MBTL1 [1]; experiment with UNC0638 in heavy SILAC media) [log base 2] | 3xMBT/D355N UNC Light (3×MBT domain of L3MBTL1 [1]; experiment with UNC0638 in light SILAC media) [log base 2] | Protein Ratio 3xMBT/D355N (3×MBT domain of L3MBTL1 [2])
1 | 0.15 | 0.34 | 0.24 | SRSF11 (protein, UniProt Q05519 2-484, looked up) Serine/arginine-rich splicing …: SNTTVVPSTAGPGPSGGPGGGGGGGGGGGGTEVIQVTNVSPSASSEQMRTLFGFLGKIDELRLFPPDDSPLPVSSRVCFVKFHDPDSAVVAQHLTNTVFVDRALIVVPYAEGVIPDEAKALSLLAPANAVAGLLPGGGLLPTPNPLTQIGAVPLAALGAPTLDPALAALGLPGANLNSQSLAADQLLKLMSTVDPKLNHVAAGLVSPSLKSDTSSKEIEEAMKRVREAQSLISAAIEPDKKEEKRRHSRSRSRSRRRRTPSSSRHRRSRSRSRRRSHSKSRSRRRSKSPRRRRSHSRERGRRSRSTSKTRDKKKEDKEKKRSKTPPKSYSTARRSRSASRERRRRRSRSGTRSPKKPRSPKRKLSRSPSPRRHKKEKKKDKDKERSRDERERSTSKKKKSKDKEKDRERKSESDKDVKQVTRDYDEEEQGYDSEKEKKEEKKPIETGSPKTKECSVEKGTGDSLRESKVNGDDHHEEDMDMSD | 2.45 | 2.22 | 
2 |  |  |  | FAM50A: protein with methylated lysine identified in 3xMBT pull-down (protein, UniProt Q14320 2-339, looked up, methylated lysine, protein with methylated lysine identified in 3xMBT pull-down) Protein FAM50A: AQYKGAASEAGRAMHLMKKREKQREQMEQMKQRIAEENIMKSNIDKKFSAHYDAVEAELKSSTVGLVTLNDMKAKQEALVKEREKQLAKKEQSKELQMKLEKLREKERKKEAKRKISSLSFTLEEEEEGGEEEEEAAMYEEEMEREEITTKKRKLGKNPDVDTSFLPDRDREEEENRLREELRQEWEAKQEKIKSEEIEITFSYWDGSGHRRTVKMRKGNTMQQFLQKALEILRKDFSELRSAGVEQLMYIKEDLIIPHHHSFYDFIVTKARGKSGPLFNFDVHDDVRLLSDATVEKDESHAGKVVLRSWYEKNKHIFPASRWEPYDPEKKWDKYTIR |  |  | 3.7*
3 |  |  |  | eEF1A2: protein with methylated lysine identified in 3xMBT pull-down (protein, UniProt Q05639 2-463, looked up) Elongation factor 1-alpha 2: GKEKTHINIVVIGHVDSGKSTTTGHLIYKCGGIDKRTIEKFEKEAAEMGKGSFKYAWVLDKLKAERERGITIDISLWKFETTKYYITIIDAPGHRDFIKNMITGTSQADCAVLIVAAGVGEFEAGISKNGQTREHALLAYTLGVKQLIVGVNKMDSTEPAYSEKRYDEIVKEVSAYIKKIGYNPATVPFVPISGWHGDNMLEPSPNMPWFKGWKVERKEGNASGVSLLEALDTILPPTRPTDKPLRLPLQDVYKIGGIGTVPVGRVETGILRPGMVVTFAPVNITTEVKSVEMHHEALSEALPGDNVGFNVKNVSVKDIRRGNVCGDSKSDPPQEAAQFTSQVIILNHPGQISAGYSPVIDCHTAHIACKFAELKEKIDRRSGKKLEDNPKSLKSGDAAIVEMVPGKPMCVESFSQYPPLGRFAVRDMRQTVAVGVIKNVEKKSGGAGKVTKSAQKAQKAGK |  |  | 1.5

Source: patent publication US20140274782A1, “AFFINITY REAGENTS AND METHODS FOR DETECTION, PURIFICATION, AND PROTEOMIC ANALYSIS OF METHYLATED PROTEINS” (The Board of Trustees of the Leland Stanford Junior …, priority 2013, published 2014)
